From patent publication US5156956A, “Transgultaminase” (Ajinomoto Co., Inc., priority 1987, dated 1992)

Experiments:
Format in all cases: biochemical
Gelatin = Gelatin gel after heating in boiling water bath; parameters: key: x: complete solution; .smallcircle.: gelled condition (not dissolved even after heating); conditions: 0.02 U/mg protein, 37° C. 1 h, then boiling water bath 10 minutes
Description: 0.1M Tris-HCl buffer (pH 7.6) was added to gelatin (manufactured by Nitta Gelatin Co., Ltd.) so as to form 5.10 wt. % solution. Gelatin was completely dissolved at 60° C. for 3 minutes and the same BTGase as that of Example 4 was added to the solution in 0.02 U/mg protein. After thoroughly mixing, the mixture was reacted at 37° C. for an hour and then heated in a boiling water bath for 10 minutes. Immediately thereafter, the condition was observed.
For purposes of comparison, the system which was identically treated except for adding no BTGase was used as control.

[1] = Measurement of BTGase activity (hydroxamate method); conditions: freeze dried product prepared in Example 1
Description: Measurement of the activity of BTGase is carried out by performing a reaction using benzyloxycarbonyl-L-glutaminyl glycine and hydroxylamine as substrates in the absence of Ca^2+, forming an iron complex with the resulting hydroxamic acid in the presence of trichloroacetic acid, measuring absorption at 525 nm and determining the amount of hydroxamic acid by a calibration curve to calculate the activity. The BTGase activity is measured by the method described below, unless otherwise indicated.
To 0.05 ml of an enzyme solution is added 0.5 ml of Reagent A and they are mixed with each other. After reacting at 37° C. for 30 minutes, Reagent B is added thereto to discontinue the reaction and form an Fe complex. Thereafter, absorbance is measured at 525 nm. As a control, absorbance is measured after reacting a previously thermally inactivated enzyme solution in a similar manner and a difference in absorbance between the control and the enzyme solution is measured. Separately, a calibration curve is prepared using L-glutamic acid γ-monohydroxamio acid instead of the enzyme solution, and the amount of hydroxamic acid produced is determined by the difference in absorbance described above. An enzyme activity which produces 1 μmol of hydroxamic acid per 1 minute is defined as 1 unit.

Rabbit myosin = assay: Gelation, test tube inversion method; parameters: key: .smallcircle.: gelled; Δ: weakly gelled; x: remained as solution; conditions: BTGase 0.02 U/mg protein, 55° C., 1 h, MTGase 0.1 U/mg, 37° C.
Description: 2) Rabbit myosin was prepared as follows for use as a substrate for BTGase.
The concentration of protein was 1.5%. BTGase was added to the myosin under the same conditions as under 1) above to examine gelation ability.
For purposes of comparison, the results of gelation ability test with MTGase are also shown. The amount of MTGase added was 0.1 U per 1 mg of substrate protein.

B1: BTGase: microorganism-derived transglutaminase; in Examples 4-11 the freeze dried product prepared in Example 1 (S. mobaraense, i.e. BTG-1) (protein, UniProt P81453 77-407, looked up)
Protein-glutamine …: DSDDRVTPPAEPLDRMPDPYRPSYGRAETVVNNYIRKWQQVYSHRDGRKQQMTEEQREWLSYGCVGVTWVNSGQYPTNRLAFASFDEDRFKNELKNGRPRSGETRAEFEGRVAKESFDEEKGFQRAREVASVMNRALENAHDESAYLDNLKKELANGNDALRNEDARSPFYSALRNTPSFKERNGGNHDPSRMKAVIYSKHFWSGQDRSSSADKRKYGDPDAFRPAPGTGLVDMSRDRNIPRSPTSPGEGFVNFDYGWFGAQTEADADKTVWTHGNHYHAPNGSLGAMHVYESKFRNWSEGYSDFDRGAYVITFIPKSWNTAPDKVKQGWP
Gelatin
  Condition of 5% Gelatin, +BTG: .smallcircle.
  Condition of 10% Gelatin, +BTG: .smallcircle.
[1]
  specific activity: 2.50 Units/mg protein
Rabbit myosin
  Gelation, Rabbit myosin 1.5%: .smallcircle.
